US20190015483A1 (CSL BEHRING RECOMBINANT FACILITY, published 2019)
Positions count from the first letter of the chain named. Names may count otherwise.

T1: recombinant Factor VIII (CSL627, rVIII-SingleChain) (Homo sapiens (Human), UniProt P00451 20-2351)
T1 construct: also called FVIII
T1 sequence: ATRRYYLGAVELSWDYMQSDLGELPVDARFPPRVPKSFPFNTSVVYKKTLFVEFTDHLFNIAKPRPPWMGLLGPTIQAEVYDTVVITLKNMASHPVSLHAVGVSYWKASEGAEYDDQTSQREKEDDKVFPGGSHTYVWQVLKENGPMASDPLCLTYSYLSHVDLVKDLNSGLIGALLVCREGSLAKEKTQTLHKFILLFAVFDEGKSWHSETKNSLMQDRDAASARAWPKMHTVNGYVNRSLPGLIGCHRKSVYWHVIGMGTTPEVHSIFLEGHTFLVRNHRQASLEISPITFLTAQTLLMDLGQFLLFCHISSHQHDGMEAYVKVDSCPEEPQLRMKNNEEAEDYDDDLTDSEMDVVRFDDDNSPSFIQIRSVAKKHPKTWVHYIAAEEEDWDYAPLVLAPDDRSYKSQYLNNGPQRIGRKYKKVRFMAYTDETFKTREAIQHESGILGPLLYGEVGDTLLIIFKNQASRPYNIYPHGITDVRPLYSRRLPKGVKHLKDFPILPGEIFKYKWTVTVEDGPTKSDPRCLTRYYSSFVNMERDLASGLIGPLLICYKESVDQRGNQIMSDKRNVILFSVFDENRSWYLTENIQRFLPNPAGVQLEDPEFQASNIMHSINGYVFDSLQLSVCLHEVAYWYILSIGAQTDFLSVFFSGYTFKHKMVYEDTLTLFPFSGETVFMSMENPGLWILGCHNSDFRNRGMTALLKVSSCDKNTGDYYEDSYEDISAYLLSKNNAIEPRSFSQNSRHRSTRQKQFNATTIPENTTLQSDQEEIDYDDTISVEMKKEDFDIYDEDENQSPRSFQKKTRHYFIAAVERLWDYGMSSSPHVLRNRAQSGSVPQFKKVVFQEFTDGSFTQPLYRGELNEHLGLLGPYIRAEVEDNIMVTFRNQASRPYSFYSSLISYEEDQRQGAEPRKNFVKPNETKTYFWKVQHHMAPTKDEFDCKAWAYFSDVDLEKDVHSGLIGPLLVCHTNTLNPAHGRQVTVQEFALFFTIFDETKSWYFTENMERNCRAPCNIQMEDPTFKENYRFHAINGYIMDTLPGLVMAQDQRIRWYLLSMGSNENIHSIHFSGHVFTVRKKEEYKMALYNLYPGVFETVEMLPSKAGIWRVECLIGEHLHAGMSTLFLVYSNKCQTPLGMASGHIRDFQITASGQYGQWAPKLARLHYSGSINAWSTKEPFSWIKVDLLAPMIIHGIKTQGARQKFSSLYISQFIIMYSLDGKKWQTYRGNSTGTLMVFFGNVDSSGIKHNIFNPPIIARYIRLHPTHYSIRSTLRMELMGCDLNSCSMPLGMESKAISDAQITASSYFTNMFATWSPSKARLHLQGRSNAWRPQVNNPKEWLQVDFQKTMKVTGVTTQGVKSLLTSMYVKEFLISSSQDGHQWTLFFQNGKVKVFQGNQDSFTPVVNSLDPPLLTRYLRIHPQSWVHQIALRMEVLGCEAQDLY

B1: Hu-vWF[764-1270]-8His S764P-L765V (other)
chain: PVSCRPPMVKLVCPADNLRAEGLECTKTCQNYDLECMSMGCVSGCLCPPGMVRHENRCVALERCPCFHQGKEYAPGETVKIGCNTCVCRDRKWNCTDHVCDATCSTIGMAHYLTFDGLKYLFPGECQYVLVQDYCGSNPGTFRILVGNKGCSHPSVKCKKRVTILVEGGEIELFDGEVNVKRPMKDETHFEVVESGRYIILLLGKALSVVWDRHLSISVVLKQTYQEKVCGLCGNFDGIQNNDLTSSNLQVEEDPVDFGNSWKVSSQCADTRKVPLDSSPATCHNNIMKQTMVDSSCRILTSDVFQDCNKLVDPEPYLDVCIYDTCSCESIGDCACFCDTIAAYAHVCAQHGKVVTWRTATLCPQSCEERNLRENGYECEWRYNSCAPACQVTCQHPEPLACPVQCVEGCHAHCPPGKILDELLQTCVDPEDCPVCEVAGRRFASGKKVTLNPSDPEHCQICHCDVVNLTCEACQEPGGLVVPPTDAPVSPTTLYVEDISEPPLHDFHHHHHHHH
B2: Hu-vWF[764-1270]-8His S766Y-K773I (other)
chain: B1 chain with P1S, V2L, S3Y, K10I
B3: Hu-vWF[764-1270]-8His S764P-S766Q (other)
chain: B1 chain with V2L, S3Q
B4: Hu-vWF[764-1270]-8His S764P-S766N (other)
chain: B1 chain with V2L, S3N
B5: Hu-vWF[764-1270]-8His S764P-S766H (other)
chain: B1 chain with V2L, S3H
B6: Hu-vWF[764-1270]-8His S764P-S766L (other)
chain: B1 chain with V2L, S3L
B7: Hu-vWF[764-1270]-8His S766Y-K773A (other)
chain: B1 chain with P1S, V2L, S3Y, K10A
B8: Hu-vWF[764-1270]-8His S764P-S766G (other)
chain: B1 chain with V2L, S3G
B9: Hu-vWF[764-1270]-8His S764P-L765W (other)
chain: B1 chain with V2W
B10: Hu-vWF[764-1270]-8His S766Y-K773E (other)
chain: B1 chain with P1S, V2L, S3Y, K10E
B11: Hu-vWF[764-1270]-8His S766Y-K773M (other)
chain: B1 chain with P1S, V2L, S3Y, K10M
B12: Hu-vWF[764-1270]-8His S764P-S766K (other)
chain: B1 chain with V2L, S3K
B13: Hu-vWF[764-1270]-8His S764P-S766E (other)
chain: B1 chain with V2L, S3E
B14: Hu-vWF[764-1270]-8His S764P-S766D (other)
chain: B1 chain with V2L, S3D
B15: Hu-vWF[764-1270]-8His S766Y-K773N (other)
chain: B1 chain with P1S, V2L, S3Y, K10N
B16: Hu-vWF[764-1270]-8His S766Y-K773L (other)
chain: B1 chain with P1S, V2L, S3Y, K10L
B17: Hu-vWF[764-1270]-8His S764P-S766V (other)
chain: B1 chain with V2L, S3V
B18: Hu-vWF[764-1270]-8His S766Y-K773G (other)
chain: B1 chain with P1S, V2L, S3Y, K10G
B19: Hu-vWF[764-1270]-8His S766Y-K773H (other)
chain: B1 chain with P1S, V2L, S3Y, K10H
B20: Hu-vWF[764-1270]-8His S764P-S766R (other)
chain: B1 chain with V2L, S3R
B21: Hu-vWF[764-1270]-8His S764P-S766W (other)
chain: B1 chain with V2L, S3W
B22: Hu-vWF[764-1270]-8His S764P-S766T (other)
chain: B1 chain with V2L, S3T
B23: Hu-vWF[764-1270]-8His S764P-L765Y (other)
chain: B1 chain with V2Y
B24: Hu-vWF[764-1270]-8His S766Y-K773F (other)
chain: B1 chain with P1S, V2L, S3Y, K10F
B25: Hu-vWF[764-1270]-8His S764P-S766M (other)
chain: B1 chain with V2L, S3M
B26: Hu-vWF[764-1270]-8His S766Y-K773P (other)
chain: B1 chain with P1S, V2L, S3Y, K10P
B27: Hu-vWF[764-1270]-8His S764P-S766P (other)
chain: B1 chain with V2L, S3P
B28: Hu-vWF[764-1270]-8His S764P-S766F (other)
chain: B1 chain with V2L, S3F
B29: Hu-vWF[764-1270]-8His S766Y-K773D (other)
chain: B1 chain with P1S, V2L, S3Y, K10D
B30: Hu-vWF[764-1270]-8His S764P-S766A (other)
chain: B1 chain with V2L, S3A
B31: Hu-vWF[764-1270]-8His S764P-S766I (other)
chain: B1 chain with V2L, S3I

Biological target: T1, recombinant Factor VIII (CSL627, …)
Experiment: SPR, anti-His capture
Protocol: Binding kinetics were investigated by surface plasmon resonance using a Biacore 4000 biosensor at 37° C. Each mutant was captured from cell culture medium to a density of 40-150 RU on a CM-5 sensor chip pre-immobilised with anti-His antibody (14,000 RU). In an initial screening study, FVIII was injected over the captured mutants for 5 minutes at 1 nM and dissociation monitored for 5 minutes.
All sensorgrams were double referenced by subtraction of signals from a reference spot (containing only immobilised anti His antibody) and from a blank injection. Binding kinetics were determined by fitting the double referenced sensorgrams to a 1:1 kinetic model.

Binder	Kd [nM]	koff [s⁻¹]	kon [M⁻¹ s⁻¹]	fold decrease in off-rate against wild type vWF [fold]	fold increase in affinity against wild type vWF [fold]
B1	0.355	0.0022	6.19e+06		
B2	0.071	0.000569	8.02e+06		
B3	0.0102	0.000123	1.2e+07		
B4	0.0104	9.14e-05	8.82e+06		
B5	0.00676	9.47e-05	1.4e+07		
B6	0.00606	8.74e-05	1.44e+07		
B7	0.0651	0.00122	1.88e+07		
B8	0.0217	0.000388	1.79e+07		
B9	0.645	0.00514	7.97e+06		
B10	0.261	0.00481	1.84e+07		
B11	0.0335	0.000659	1.97e+07		
B12	0.014	0.000301	2.15e+07		
B13	0.016	0.000128	8.04e+06		
B14	0.0127	0.00012	9.41e+06		
B15	0.0984	0.00507	5.15e+07		
B16	0.0192	0.000345	1.79e+07		

Binder	Kd [nM]	koff [s⁻¹]	kon [M⁻¹ s⁻¹]	fold decrease in off-rate against wild type vWF [fold]	fold increase in affinity against wild type vWF [fold]
B17	0.0956	7.82e-05	819000		
B18	0.0327	0.00197	6.02e+07		
B19	0.114	0.0062	5.47e+07		
B20	0.00921	0.000119	1.29e+07		
B21	0.00727	8e-05	1.1e+07		
B22	0.0116	0.000105	9.01e+06		
B23	0.355	0.0022	6.19e+06		
B24	0.158	0.00324	2.05e+07		
B25	0.00488	5.76e-05	1.18e+07		
B26	0.112	0.00243	2.16e+07		
B27	0.0848	0.00217	2.56e+07		
B28	0.00741	0.0001	1.35e+07		
B29	0.343	0.0427	1.25e+08		
B30	0.0123	0.000166	1.35e+07		
B31	0.00523	5.14e-05	9.84e+06	22	30
